Data reported in US5306619, “Screening assay for the detection of DNA-binding molecules” (Genelabs Technologies, Inc.).

How the values were obtained:
[1] = target: UL9 full length (Herpes simplex virus 1, UniProt P10193 P10193:1-851); test: EMSA; dissociation time at 4 C, competition with SEQ 16; conditions: protein: extract; tags: baculovirus/Sf9 expressed, partially purified extract; label: 32P
[2] = target: UL9-COOH (C-terminal 317 aa of HSV UL9) (Herpes simplex virus 1, UniProt P10193 P10193:535-851); test: EMSA; dissociation time at 4 C, competition with SEQ 16; 20 mM HEPES pH 7.2, 50 mM KCl, 1 mM DTT; conditions: tags: GST fusion from pGEX-2T, thrombin cleaved; crude E. coli extracts also used; label: 32P
Sequence of UL9-COOH (C-terminal 317 aa of HSV UL9) (P10193 535-851, one chain of several): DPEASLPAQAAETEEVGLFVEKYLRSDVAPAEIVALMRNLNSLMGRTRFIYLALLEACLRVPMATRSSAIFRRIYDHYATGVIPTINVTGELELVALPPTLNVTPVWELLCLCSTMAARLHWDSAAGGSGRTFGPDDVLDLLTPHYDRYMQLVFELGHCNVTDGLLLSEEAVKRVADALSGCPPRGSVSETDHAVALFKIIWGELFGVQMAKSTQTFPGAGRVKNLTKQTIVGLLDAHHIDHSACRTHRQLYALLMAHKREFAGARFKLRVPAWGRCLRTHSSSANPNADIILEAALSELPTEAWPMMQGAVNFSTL

Sequence of UL9 full length (P10193 whole entry, the tested form may be a part, one chain of several): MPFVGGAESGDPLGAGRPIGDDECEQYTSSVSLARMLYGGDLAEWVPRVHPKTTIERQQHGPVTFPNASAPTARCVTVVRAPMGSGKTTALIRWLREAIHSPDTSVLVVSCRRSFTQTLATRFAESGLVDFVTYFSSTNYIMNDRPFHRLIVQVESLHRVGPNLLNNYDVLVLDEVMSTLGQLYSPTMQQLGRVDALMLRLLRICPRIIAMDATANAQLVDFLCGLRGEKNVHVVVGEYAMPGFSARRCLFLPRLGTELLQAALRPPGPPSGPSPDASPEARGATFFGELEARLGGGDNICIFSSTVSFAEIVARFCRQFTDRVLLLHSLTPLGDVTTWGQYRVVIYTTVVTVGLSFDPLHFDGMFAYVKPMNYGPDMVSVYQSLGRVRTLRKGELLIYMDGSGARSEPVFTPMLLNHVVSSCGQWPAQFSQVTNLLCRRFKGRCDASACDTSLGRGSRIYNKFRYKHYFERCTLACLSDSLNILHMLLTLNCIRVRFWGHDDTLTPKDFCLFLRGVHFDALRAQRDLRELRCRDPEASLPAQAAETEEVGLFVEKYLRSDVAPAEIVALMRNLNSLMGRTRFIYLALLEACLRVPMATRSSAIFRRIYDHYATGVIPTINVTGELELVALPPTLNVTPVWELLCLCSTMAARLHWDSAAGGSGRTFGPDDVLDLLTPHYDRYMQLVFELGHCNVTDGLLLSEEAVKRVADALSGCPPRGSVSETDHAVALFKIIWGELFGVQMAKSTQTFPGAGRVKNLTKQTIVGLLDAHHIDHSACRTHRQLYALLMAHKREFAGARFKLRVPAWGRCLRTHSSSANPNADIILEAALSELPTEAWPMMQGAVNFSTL

B1: FIG. 4 HSV oriS oligonucleotide (dsDNA)
DNA 1: AAGTGAGAATTCGAAGCGTTCGCACTTCGTCCCAAT
DNA 2: ATTGGGACGAAGTGCGAACGCTTCGAATTCTCACTT
B1 gave a koff [1] of ~4 h and a koff [2] of ~4 h.
